Drawing on article PMC6563369, “Systematic unravelling of the inulin hydrolase from Bacillus amyloliquefaciens for efficient conversion of inulin to poly-(γ-glutamic acid)” (Biotechnology for Biofuels, 2019), this text covers Km, Vmax and kcat/Km for one protein.

The Km is the substrate concentration at which the rate is half of its maximum. For orientation: Vmax means the top rate of the reaction or transport when substrate is in excess. One may read the kcat/Km as the second-order rate constant that governs catalysis at low substrate concentration.

What all share (assay): DNS reducing sugar assay, Lineweaver-Burk
Common to all, as to format: biochemical, Bacillus amyloliquefaciens
Conditions in all cases: 50 mM PBS pH 7.5, 55 °C, 20 min

Substrate in data set [1]: OC[C@H]1O[C@H](OC[C@H]2O[C@H](O[C@]3(CO)O[C@H](CO)[C@@H](O)[C@@H]3O)[C@H](O)[C@@H](O)[C@@H]2O)[C@H](O)[C@@H](O)[C@H]1O
From the text:
(§1) DNS reducing sugar assay, Lineweaver-Burk on CscA (inulin hydrolase)

Substrate in data set [2]: OC[C@H]1O[C@@](CO)(O[C@H]2O[C@H](CO)[C@@H](O)[C@H](O)[C@H]2O)[C@@H](O)[C@@H]1O
Source text: as §1

Substrate in data set [3]: OC[C@H]1O[C@H](OC[C@H]2O[C@H](OC[C@H]3O[C@H](O[C@]4(CO)O[C@H](CO)[C@@H](O)[C@@H]4O)[C@H](O)[C@@H](O)[C@@H]3O)[C@H](O)[C@@H](O)[C@H]2O)[C@H](O)[C@@H](O)[C@H]1O
Source text: as §1

B1: CscA (inulin hydrolase) (Bacillus amyloliquefaciens DSM 7 = ATCC 23350) (protein)
chain: MDRIQQAEEALKKAEGKVKQRYRLGYHIMPRANWINDPNGLIQFKGEYHVFFQHHPFDENWGPMHWGHVKSKDLIHWEHLPIALAPGDAFDQSGCFSGSAVDDRGRLVLIYTGHNMIDPEKDLFYQTQNIAVSQDGAVFEKLQDNPVIAEPPEDSSRHFRDPKVWKHRGDWYMVVGNSTKENVGRVILYRSSDLRNWEYAGVLAQSDGHLGYMWECPDFFELGGKHVLLISPQGIEADGDSYKNLHQTGYLIGDYNDETNKFTHGAFKELDHGHDFYAVQTLLDDKGRRIAVGWMDMWESEMPTKADGWCGALTLPRELTLRDDHKLLMNPVEETKQLRKMKYRECAGRSVSGSYLAKTSEELLEVQVVYDVNDCDAETAGIKIRGLDEEELVLKYNLTDKKLTLDCTKMGKAKDGVRRVRMDASGKLALRIFIDRSSIEVFANHGEATMTSRIYPKEGRLGLELFSEKGAVKVEEFTYWTLKDIWKKS
notes: full-length ORF (1470 bp, 489 residues, no signal peptide), pET-28a BamHI/XhoI, His-tagged, expressed in E. coli BL21(DE3), Ni-NTA
For B1, the Km in data set [1] came out at 12.25 ± 0.07 mM; in data set [2], 4.33 ± 0.03 mM; in data set [3], 19.08 ± 0.09 mM. The maximal velocity (Vmax) worked out at 724 µmol/min/mg in data set [1], 1760 µmol/min/mg in data set [2] and 687 µmol/min/mg in data set [3]. The figures for the catalytic efficiency (kcat/Km) in data set [1], in data set [2] and in data set [3] were 57500 ± 1330 M⁻¹ s⁻¹, 398000 ± 20000 M⁻¹ s⁻¹ and 36500 ± 667 M⁻¹ s⁻¹, respectively.
